Values belong to the molecule of their own block, whether it stands above or below them.
Assays:
activin A [1] = molecular target: T1, activin A (UniProt P08476 311-426); test: cell-based or functional assay
T1 construct: Soluble ligand injected in SPR or added in the reporter assay
T1 sequence (looked up): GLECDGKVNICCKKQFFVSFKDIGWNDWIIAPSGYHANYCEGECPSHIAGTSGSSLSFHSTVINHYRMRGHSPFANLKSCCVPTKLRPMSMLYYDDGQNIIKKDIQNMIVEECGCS

GDF11 [2] = molecular target: T2, GDF11 (UniProt O95390 299-407); test: cell-based or functional assay
T2 construct: also called Growth and differentiation factor-11; BMP11
T2 sequence (looked up): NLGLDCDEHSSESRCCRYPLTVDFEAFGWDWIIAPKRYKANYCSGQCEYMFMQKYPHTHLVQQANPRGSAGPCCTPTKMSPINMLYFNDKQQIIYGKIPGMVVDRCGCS

BMP9 [3] = molecular target: T3, BMP9 (UniProt Q9UK05 320-429); test: cell-based or functional assay
T3 sequence (looked up): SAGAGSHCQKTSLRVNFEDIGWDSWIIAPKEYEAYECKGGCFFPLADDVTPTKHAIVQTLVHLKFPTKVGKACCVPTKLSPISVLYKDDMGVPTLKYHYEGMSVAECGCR

Activin A [4] = molecular target: T4, Activin A (Homo sapiens, UniProt P08476); test: Biacore-based binding assay (surface plasmon resonance), activin A; conditions: for activin A binding compared to ActRIIB-G1Fc (in words): FIGS. 8A and 8B
T4 sequence (P08476 311-426): T1 sequence (looked up)
Description: (§1) To determine ligand binding profiles of variant ActRIIB-Fc homodimers, a Biacore™-based binding assay was used to compare ligand binding kinetics of certain variant ActRIIB-Fc polypeptides. ActRIIB-Fc polypeptides to be tested were independently captured onto the system using an anti-Fc antibody. Ligands were then injected and allowed to flow over the captured receptor protein. ActRIIB-G1Fc was used as the control polypeptide.
as §1, with “protein.” for “protein. ActRIIB-G1Fc was used as the control polypeptide.”
(§2) A Biacore™-based binding assay was used to compare the ligand binding kinetics of an ActRIIB-Fc:ActRIIB(L79E)-Fc heterodimer with those of unmodified ActRIIB-Fc homodimer. Fusion proteins were captured onto the system using an anti-Fc antibody. Ligands were then injected and allowed to flow over the captured receptor protein at 37° C. Results are summarized in the table below, in which ligand off-rates (kd) most indicative of effective ligand traps are denoted in bold.

Activin B = molecular target: T5, Activin B (Homo sapiens, UniProt P09529); test: Biacore-based binding assay (surface plasmon resonance), activin B; conditions: for affinity for activin B compared to unmodified ActRIIB-Fc (in words): SPR 37° C., compared to ActRIIB-G1Fc / ActRIIB-Fc homodimer
T5 sequence (P09529 293-407): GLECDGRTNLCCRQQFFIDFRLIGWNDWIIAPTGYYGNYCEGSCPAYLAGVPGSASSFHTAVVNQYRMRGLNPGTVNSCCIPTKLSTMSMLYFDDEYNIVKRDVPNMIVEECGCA
Description: as §1, §2

BMP9 [5] = molecular target: T6, BMP9 (Homo sapiens, UniProt Q9UK05); test: Biacore-based binding assay (surface plasmon resonance), BMP9; conditions: for binding to BMP9 compared to unmodified ActRIIB-Fc (in words): SPR 37° C., compared to ActRIIB-G1Fc / ActRIIB-Fc homodimer
T6 sequence (Q9UK05 320-429): T3 sequence (looked up)
Description: as §1
as §1, with “protein.” for “protein. ActRIIB-G1Fc was used as the control polypeptide.”
as §2

BMP10 = molecular target: T7, BMP10 (Homo sapiens, UniProt O95393); test: Biacore-based binding assay (surface plasmon resonance), BMP10; conditions: for BMP10 binding compared to ActRIIB-G1Fc (in words): FIGS. 8A and 8B
T7 sequence (O95393 317-424): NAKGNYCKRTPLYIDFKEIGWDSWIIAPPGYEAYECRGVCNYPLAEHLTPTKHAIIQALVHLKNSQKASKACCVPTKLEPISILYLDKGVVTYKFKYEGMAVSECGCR
Description: as §1, §2

GDF8 = molecular target: T8, GDF8 (Homo sapiens, UniProt O14793); test: Biacore-based binding assay (surface plasmon resonance), GDF8; conditions: for GDF8 binding compared to unmodified ActRIIB-Fc (in words): SPR 37° C., compared to ActRIIB-G1Fc / ActRIIB-Fc homodimer
T8 sequence (O14793 267-375): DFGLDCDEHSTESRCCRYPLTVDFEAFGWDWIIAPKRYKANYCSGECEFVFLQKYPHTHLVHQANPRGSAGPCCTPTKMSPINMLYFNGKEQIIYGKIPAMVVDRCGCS
Description: as §1, §2

GDF11 [6] = molecular target: T9, GDF11 (Homo sapiens, UniProt O95390); test: Biacore-based binding assay (surface plasmon resonance), GDF11; conditions: for GDF11 binding compared to unmodified ActRIIB-Fc (in words): SPR 37° C., compared to ActRIIB-G1Fc / ActRIIB-Fc homodimer
T9 sequence (O95390 299-407): T2 sequence (looked up)
Description: as §1
as §1, with “protein.” for “protein. ActRIIB-G1Fc was used as the control polypeptide.”
as §2

GDF3 = molecular target: T10, GDF3 (Homo sapiens, UniProt Q9NR23); test: Biacore-based binding assay (surface plasmon resonance), GDF3; conditions: 37° C., capture by anti-Fc antibody
T10 sequence (Q9NR23 251-364): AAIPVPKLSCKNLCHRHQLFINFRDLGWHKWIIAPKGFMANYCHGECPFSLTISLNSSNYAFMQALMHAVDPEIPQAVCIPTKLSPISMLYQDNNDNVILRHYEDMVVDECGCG
Description: as §2

BMP6 = molecular target: T11, BMP6 (Homo sapiens, UniProt P22004); test: Biacore-based binding assay (surface plasmon resonance), BMP6
T11 sequence (P22004 375-513): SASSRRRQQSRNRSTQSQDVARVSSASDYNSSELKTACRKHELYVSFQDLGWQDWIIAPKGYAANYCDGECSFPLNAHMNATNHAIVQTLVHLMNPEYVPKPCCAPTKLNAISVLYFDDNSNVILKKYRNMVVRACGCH
Description: as §2

[7] = 37° C., capture by anti-Fc antibody
[8] = 37° C., capture by anti-Fc antibody, Transient*: indeterminate due to transient nature of interaction

- IC50 (ng/ml), A204 CAGA12 luciferase reporter assay (activin A [1]): 206 ng/mL
- IC50 (ng/ml), A204 CAGA12 luciferase reporter assay (GDF11 [2]): 318 ng/mL
- IC50 (ng/ml), A204 CAGA12 luciferase reporter assay (BMP9 [3]): 777 ng/mL
Molecule: K55R (homodimeric ActRIIB-Fc construct) (Fc fusion)

- activin A binding compared to ActRIIB-G1Fc (in words) (Activin A [4]; SPR 37° C.): significant decrease
- affinity for activin B compared to unmodified ActRIIB-Fc (in words) (Activin B): relatively high affinity for activin B
- binding to BMP9 compared to unmodified ActRIIB-Fc (in words) (BMP9 [5]): decrease in binding to BMP9
- BMP10 binding compared to ActRIIB-G1Fc (in words) (BMP10; SPR 37° C.): decrease in BMP10 binding
Molecule: L79H-F82K: homodimeric ActRIIB-G1Fc fusion with L79H and F82K substitutions; mature SEQ ID NO: 347
- GDF8 binding compared to unmodified ActRIIB-Fc (in words) (GDF8): significant decrease in GDF8 and GDF11 binding
- GDF11 binding compared to unmodified ActRIIB-Fc (in words) (GDF11 [6]): significant decrease in GDF8 and GDF11 binding

- activin A binding compared to ActRIIB-G1Fc (in words) (Activin A [4]; SPR 37° C.): significant decrease
- affinity for activin B compared to unmodified ActRIIB-Fc (in words) (Activin B): relatively high affinity for activin B
- binding to BMP9 compared to unmodified ActRIIB-Fc (in words) (BMP9 [5]): decrease in binding to BMP9
- BMP10 binding compared to ActRIIB-G1Fc (in words) (BMP10; SPR 37° C.): decrease in BMP10 binding
Molecule: L79H: homodimeric ActRIIB-G1Fc fusion with L79H substitution; mature SEQ ID NO: 344

The remaining lines, values behind:

Molecule: K55D (homodimeric ActRIIB-Fc construct) (Fc fusion)
- IC50 (ng/ml), A204 CAGA12 luciferase reporter assay (activin A [1]): 396 ng/mL
- IC50 (ng/ml), A204 CAGA12 luciferase reporter assay (GDF11 [2]): 365 ng/mL
- IC50 (ng/ml), A204 CAGA12 luciferase reporter assay (BMP9 [3]): 5500 ng/mL

Molecule: L79H-F82I: homodimeric ActRIIB-G1Fc fusion with L79H and F82I substitutions; mature SEQ ID NO: 341
- activin A binding compared to ActRIIB-G1Fc (in words) (Activin A [4]; SPR 37° C.): significant decrease
- affinity for activin B compared to unmodified ActRIIB-Fc (in words) (Activin B): relatively high affinity for activin B
- binding to BMP9 compared to unmodified ActRIIB-Fc (in words) (BMP9 [5]): decrease in binding to BMP9
- BMP10 binding compared to ActRIIB-G1Fc (in words) (BMP10; SPR 37° C.): decrease in BMP10 binding

B1: ActRIIB-Fc:ActRIIB(L79E)-Fc heterodimer: heteromeric complex of unmodified human ActRIIB-Fc and ActRIIB(L79E)-Fc, each fused to a G1Fc domain with linker (protein)
chain 1: GRGEAETRECIYYNANWELERTNQSGLERCEGEQDKRLHCYASWRNSSGTIELVKKGCWEDDFNCYDRQECVATEENPQVYFCCCEGNFCNERFTHLPEAGGPEVTYEPPPTAPTGGGTHTCPPCPAPELLGGPSVFLFPPKPKDTLMISRTPEVTCVVVDVSHEDPEVKFNWYVDGVEVHNAKTKPREEQYNSTYRVVSVLTVLHQDWLNGKEYKCKVSNKALPAPIEKTISKAKGQPREPQVYTLPPSREEMTKNQVSLTCLVKGFYPSDIAVEWESNGQPENNYDTTPPVLDSDGSFFLYSDLTVDKSRWQQGNVFSCSVMHEALHNHYTQKSLSLSPG
chain 2: GRGEAETRECIYYNANWELERTNQSGLERCEGEQDKRLHCYASWRNSSGTIELVKKGCWLDDFNCYDRQECVATEENPQVYFCCCEGNFCNERFTHLPEAGGPEVTYEPPPTAPTGGGTHTCPPCPAPELLGGPSVFLFPPKPKDTLMISRTPEVTCVVVDVSHEDPEVKFNWYVDGVEVHNAKTKPREEQYNSTYRVVSVLTVLHQDWLNGKEYKCKVSNKALPAPIEKTISKAKGQPREPQVYTLPPSRKEMTKNQVSLTCLVKGFYPSDIAVEWESNGQPENNYKTTPPVLKSDGSFFLYSKLTVDKSRWQQGNVFSCSVMHEALHNHYTQKSLSLSPGK
- ka Activin A (Activin A [4]; [7]): 8.8e+06 M⁻¹ s⁻¹
- kd Activin A (Activin A [4]; [7]): 0.0015 s⁻¹
- off-rate for activin A compared to ActRIIB-Fc homodimer (Activin A [4]; SPR 37° C.): approximately ten-fold faster off-rates
- ka Activin B (Activin B; [7]): 8.3e+06 M⁻¹ s⁻¹
- kd Activin B (Activin B; [7]): 0.00021 s⁻¹
- affinity for activin B compared to unmodified ActRIIB-Fc (in words) (Activin B): largely retained high-affinity binding
- ka GDF3 (GDF3): 580000 M⁻¹ s⁻¹
- kd GDF3 (GDF3): 0.0059 s⁻¹
- ka GDF8 (GDF8; [7]): 3.4e+06 M⁻¹ s⁻¹
- kd GDF8 (GDF8; [7]): 0.0005 s⁻¹
- GDF8 binding compared to unmodified ActRIIB-Fc (in words) (GDF8): largely retained high-affinity binding
- ka GDF11 (GDF11 [6]; [7]): 4e+07 M⁻¹ s⁻¹
- kd GDF11 (GDF11 [6]; [7]): 0.00036 s⁻¹
- GDF11 binding compared to unmodified ActRIIB-Fc (in words) (GDF11 [6]): largely retained high-affinity binding
- ka BMP6 (BMP6; [7]): 3.3e+08 M⁻¹ s⁻¹
- kd BMP6 (BMP6; [7]): 0.018 s⁻¹
- BMP6 binding compared to ActRIIB-Fc homodimer (in words) (BMP6; SPR 37° C.): largely retained high-affinity binding
- ka BMP9 (BMP9 [5]; [8]): Transient*
- kd BMP9 (BMP9 [5]; [8]): Transient*
- binding to BMP9 compared to unmodified ActRIIB-Fc (in words) (BMP9 [5]): even greater reduction in the strength of binding to BMP9
- ka BMP10 (BMP10; [7]): 4.8e+07 M⁻¹ s⁻¹
- kd BMP10 (BMP10; [7]): 0.002 s⁻¹
- off-rate for BMP10 compared to ActRIIB-Fc homodimer (BMP10; SPR 37° C.): approximately ten-fold faster off-rates

— patent US20240181007A1, “COMPOSITIONS AND METHODS FOR TREATING PULMONARY HYPERTENSION” (Acceleron Pharma Inc., priority 2021, published 2024)
